Source: publication PMC4108180

What was measured:
Test in all cases: purified protein
purified protein [1] = substrate: O=C(O)[C@@H](O)[C@H](O)[C@@H](O)[C@@H](O)CO; settings: 0.5 mM NAD+, 50 mM phosphate pH 7.5, 30 °C
purified protein [2] = substrate: O=C(O)[C@@H](O)[C@H](O)[C@H](O)[C@@H](O)CO; settings: 0.5 mM NAD+, 50 mM phosphate pH 7.5, 30 °C
purified protein [3] = substrate: NC(=O)c1ccc[n+]([C@@H]2O[C@H](COP(=O)(O)OP(=O)(O)OC[C@H]3O[C@@H](n4cnc5c(N)ncnc54)[C@H](O)[C@@H]3O)[C@@H](O)[C@H]2O)c1; settings: with L-galactose, 50 mM BICINE pH 8.0, 30 °C, varied: cofactor
purified protein [4] = substrate: C[C@H](O)[C@H]1OC(=O)[C@@H](O)[C@@H]1O; settings: 2.5 mM MOPS pH 7.1, 0.2 M NaCl, 1% DMSO, 30 °C
purified protein [5] = substrate: C[C@H]1C[C@@H](O)[C@H](O)C(=O)O1; settings: 2.5 mM MOPS pH 7.1, 0.2 M NaCl, 1% DMSO, 30 °C
purified protein [6] = substrate: O=C1O[C@@H](CO)[C@@H](O)[C@@H]1O; settings: 2.5 mM MOPS pH 7.1, 0.2 M NaCl, 1% DMSO, 30 °C
purified protein [7] = substrate: O=C1O[C@@H](CO)[C@H](O)[C@@H](O)[C@@H]1O; settings: 2.5 mM MOPS pH 7.1, 0.2 M NaCl, 1% DMSO, 30 °C
purified protein [8] = substrate: O=C1O[C@H](CO)[C@@H](O)[C@@H]1O; settings: 2.5 mM MOPS pH 7.1, 0.2 M NaCl, 1% DMSO, 30 °C
purified protein [9] = substrate: O=C1O[C@H]([C@@H](O)CO)[C@@H](O)[C@@H]1O; settings: 2.5 mM MOPS pH 7.1, 0.2 M NaCl, 1% DMSO, 30 °C

B1: Bvu0222 (Phocaeicola vulgatus ATCC 8482) (protein)
chain: MKAIQITAPSEMKVVDIEKPVLEPGEVLVKIKYVGFCGSDLNTFLGRNPMVKLPVIPGHEVGAVIEAVGKDVPDSLKPGMSVTVNPYTNCGKCASCRNGRVNACEHNETLGVQRNGAMCEYIALPWSKIIPAHRIPPRDCALIEPMSVGFHAVSRAQVTDIDIVMVIGCGMIGMGAIVRSALRGATVIAVDLDDEKLELAKRIGAHHTINSMTENVHECLTKITEGLGPDVVIEAVGSPATYVMAVNEVGFTGRVVCIGYAKSEVSFQTKYFVQKELDIRGSRNALPTDFRAVIRYMEQGTCPKNELISKVVKPEAAIQAMKEWAAAPGKVFRILVEFD
Purified protein [1]
  Km: 510 ± 70 µM
  kcat: 0.2 ± 0.1 s⁻¹
  kcat/Km: 390 ± 60 M⁻¹ s⁻¹
Purified protein [2]
  Km: 36 ± 3 µM
  kcat: 0.6 ± 0.1 s⁻¹
  kcat/Km: 17000 ± 1000 M⁻¹ s⁻¹

B2: Bvu0219 (Phocaeicola vulgatus ATCC 8482) (protein)
chain: MNYNEIGKTGMRVSNLSFGASSLGGVFHDIREAEGIKAVYTAVENGMNFIDVSPYYGHYKAETVLGKALKEIPRDKYYLSTKVGRYGKDGVNTWDYSGKRATESVYESLDRLHIEYIDLINVHDVEFSDMNQVVNETLPALVELKKKGIVGHVGITDLQLENLKWIIDHSEPGTVESVLNFCHYCLNDEKLTDYLDYFESKNIGIINASPLSMGLLSQRGVPAWHPAPQSLVEACRKAVQHCLSKNYPIEKLAIQYSVSNPRIATTLFSSANPDNVLKNITYAEEPIDWNLVKEVQEIIGKQMRISWANS
Purified protein [3]
  Km: 3000 ± 200 µM
  kcat: 25 ± 1 s⁻¹
  kcat/Km: 9000 ± 100 M⁻¹ s⁻¹

B3: Bvu0220 (Phocaeicola vulgatus ATCC 8482) (protein)
chain: MMDFNIIDAHSHLWLRQDTEVNGLPIRTLTNGRSLFMGEERQMVPPFMIDGRNSAEVFLSNMDYAQVSAAVVTQEFIDGIQNEYLAKVSHKYPDRFFVCGMCEFRKPGYLQQAKELISSGFKAIKIPAHRLFLKEGRVMLNSDEMMEMFHYMQEKDIILSIDLADGDTQVQEMKEIIQEYPQLRIAIGHFGMVTTPHWQEQIKLARHKNVMIESGGITWLFNSEFYPFHGAVKAIKEAADLVGMDKLMWGSDYPRTITAITYKMSYDFILKTTEMTQEEKALFLGKNAERFYGFKNLISLPYIKNMSE
Purified protein [4]
  Km: 1320 ± 210 µM
  kcat: 23 ± 2 s⁻¹
  kcat/Km: 18000 ± 2000 M⁻¹ s⁻¹
Purified protein [5]
  Km: 32 ± 4 µM
  kcat: 23 ± 1 s⁻¹
  kcat/Km: 720000 ± 80000 M⁻¹ s⁻¹
Purified protein [6]
  Km: 5500 ± 550 µM
  kcat: 5.3 ± 0.4 s⁻¹
  kcat/Km: 930 ± 40 M⁻¹ s⁻¹
Purified protein [7]
  Km: 500 ± 40 µM
  kcat: 38 ± 1 s⁻¹
  kcat/Km: 80000 ± 5000 M⁻¹ s⁻¹
Purified protein [8]
  Km: 1700 ± 140 µM
  kcat: 1 ± 0.1 s⁻¹
  kcat/Km: 500 ± 30 M⁻¹ s⁻¹
Purified protein [9]
  Km: 1950 ± 310 µM
  kcat: 34 ± 3 s⁻¹
  kcat/Km: 18000 ± 2000 M⁻¹ s⁻¹
